From patent US20210353784A1, “DETECTING AND TREATING CANCERS USING CELL PENETRANT MTP53-OLIGOMERIZATION-DOMAIN PEPTIDE” (priority 2020, published 2021)

Experiments:
MDA-MB-468 cells = conditions: 500 nM, 24 h; mtp53 R273H
Experimental: (§1) Three independent experiments with biological replicates were performed for all ±SEM *p-value ≤0.05, **p-value ≤0.01, ***p-value ≤0.001.
(§2) Toxicity to normal cells and tissues represents an important barrier for drug delivery, and an advantage of cell penetrating peptide-based therapies is their low toxicity compared to most drug carriers. To evaluate the toxicity of Cy5p53Tet to breast cancer cells and normal breast mammary epithelial cells, the viability of cells was evaluated following peptide treatment (FIG. 1G).
(§3) Peptidecytotoxicity Assay. A total of 1.25×10^5 cells were seeded in a 12-well plate the day before and grown at 37° C. Cells were treated with 500 nM Cy5p53Tet for 24 h, and 0.1 mL MTT solution [5 mg mL^−1 (3-(4, 5-dimethylthiazolyl-2)-2, 5-diphenyltetrazolium bromide] was added to the cells and incubated at 37° C. for 1 h. The cells were then resuspended in 0.04 N hydrochloric acid diluted in isopropanol and incubated in the dark on a shaker for 5 min at room temperature. The absorbance was quantified at 550 nm, and the background absorbance was subtracted at 620 nm.

HCC70 = conditions: 500 nM, 24 h; mtp53 R248Q
Experimental: as §1, §2, §3

H-CysCy5-RKKRRQRRGEYFTLQIRGRERFEMFRELNEALELK-OH (N-terminal Cy5; Synthetic peptide based on p53 protein) [Cy5p53Tet]
mitochondrial activity reduced by (MDA-MB-468 cells): 10.6%
mitochondrial activity reduced by (HCC70): 13.6%
